US20210206856A1 (PANDION OPERATIONS, published 2021)

T1: human MAdCAM expressed on cells (human, UniProt Q13477 19-382)
T1 construct: whole, on cells; also called MADCAM1
T1 sequence (looked up): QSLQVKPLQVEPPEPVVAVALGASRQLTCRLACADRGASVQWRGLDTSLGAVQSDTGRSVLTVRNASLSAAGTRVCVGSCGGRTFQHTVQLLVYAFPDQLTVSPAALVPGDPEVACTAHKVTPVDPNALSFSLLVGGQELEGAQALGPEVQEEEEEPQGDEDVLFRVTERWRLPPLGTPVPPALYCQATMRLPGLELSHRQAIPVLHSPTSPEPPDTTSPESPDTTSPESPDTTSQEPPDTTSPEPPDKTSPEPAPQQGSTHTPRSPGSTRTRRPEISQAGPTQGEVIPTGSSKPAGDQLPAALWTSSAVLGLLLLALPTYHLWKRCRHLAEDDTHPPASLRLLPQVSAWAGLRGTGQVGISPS

T2: mouse MAdCAM expressed on cells (mouse, UniProt Q61826 22-405)
T2 construct: whole, on cells
T2 sequence (looked up): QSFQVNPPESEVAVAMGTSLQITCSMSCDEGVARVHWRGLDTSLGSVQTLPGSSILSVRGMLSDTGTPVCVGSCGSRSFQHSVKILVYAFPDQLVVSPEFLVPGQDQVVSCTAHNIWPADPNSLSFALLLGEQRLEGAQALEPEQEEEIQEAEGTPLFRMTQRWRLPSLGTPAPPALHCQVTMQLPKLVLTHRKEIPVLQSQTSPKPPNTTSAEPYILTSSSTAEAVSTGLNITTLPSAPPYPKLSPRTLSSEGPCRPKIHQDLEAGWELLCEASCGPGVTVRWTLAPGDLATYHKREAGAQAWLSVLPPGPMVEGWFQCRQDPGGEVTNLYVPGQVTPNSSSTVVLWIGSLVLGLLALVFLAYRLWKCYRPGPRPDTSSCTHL

B1: MAdCAM Antibody Table 1 Clone 63 (scFv)
scFv: EVQLLESGGGLVKPGGSLRLSCAASGFTFDDYAMHWVRQAPGKGLEWVASITSSSAFIDYAASVKGRFTISRDDSKNTLYLQMNSLKTEDTAVYYCARERVDWNSYFDLWGRGTLVTVSSGGGGSGGGGSGGGGSGGGGSEIVMTQSPATLSVSPGERATLSCRASQGISNSYLAWYQQKPGQAPRLLIYGASTRATGIPARFSGSGSGTEFTLTISSLQSEDFAVYYCQQYYTYPPTFGPGTKVDIK
B2: MAdCAM Antibody Table 1 Clone 61 (scFv)
scFv: EVQLLESGGGLVQPGGSLRLSCAASEFTFSNAWMSWVRQAPGKGLEWVASISSTSAYIDYADSVKGRFTISRDNSKNTLYLQMNSLRAEDTAVYYCAREVVGATTFDYWGQGTLVTVSSGGGGSGGGGSGGGGSGGGGSDIQMTQSPSSLSASVGDRVTITCRASQSISTWLAWYQQKPGKAPKLLIYAASSLQSGVPSRFSGSGSGTDFTLTISSLQPEDFATYYCQQANAFPPTFGQGTRLEIK
B3: MAdCAM Antibody Table 1 Clone 59 (scFv)
scFv: EVQLLESGGGLVQPGGSLRLSCAASGFTFSDFWMHWVRQAPGKGLEWISYISGDSGYTNYADSVKGRFTISRDNSKNTLYLQMNSLRAEDTAVYYCARDRPYYYYMDVWGKGTTVTVSSGGGGSGGGGSGGGGSGGGGSDIQMTQSPSSLSASVGDRVTITCRASQSVSRSLAWYQQKPGKAPKLLIYAASSLQSGVPSRFSGSGSGTDFTLTISSLQPEDFATYYCQQYKSYPVTFGQGTKVEIK
B4: MAdCAM Antibody Table 1 Clone 60 (scFv)
scFv: EVQLLESGGGLVQPGGSLRLSCAASGFTFDDYTMHWVRQAPGKGLEWVSDISGSGGSTYYADSVKGRFTISRDNSKNTLYLQMNSLRAEDTAVYYCAKDVVVAGTPLHFDYWGQGTLVTVSSGGGGSGGGGSGGGGSGGGGSDIQMTQSPSSLSASVGDRVTITCQASQDISNYLNWYQQKPGKAPKLLIYAASYLQSGVPSRFSGSGSGTDFTLTISSLQPEDFATYYCQQAHNYPITFGQGTRLEIK
B5: MAdCAM Antibody Table 1 Clone 54 (scFv)
scFv: EVQLLESGGGLVQPGGSLRLSCAASGFTFGDYAMSWVRQAPGKGLEWVAVVSYDGTNKYYADSVKGRFTISRDNSKNTLYLQMNSLRAEDTAVYYCAKDICSSTSCYFDLWGRGTLVTVSSGGGGSGGGGSGGGGSGGGGSDIQMTQSPSSLSASVGDRVTITCRASQNINNYVNWYQQKPGKAPKLLIYDASNLETGVPSRFSGSGSGTDFTLTISSLQPEDFATYYCQQANSFPPTFGQGTRLEIK
B6: MAdCAM Antibody Table 1 Clone 52 (scFv)
scFv: EVQLLESGGGLVQPGGSLRLSCAASGFTFSNSDMNWVRQAPGKGLEWVAHIWNDGSQKYYADSVKGRFTISRDNSKNTLYLQMNSLRAEDTAVYYCARDRTDPGYSSAMDVWGQGTTVTVSSGGGGSGGGGSGGGGSGGGGSDIQMTQSPSSLSASVGDRVTITCRASQDIRNYLGWYQQKPGKAPKLLIYDASSLETGVPSRFSGSGSGTDFTLTISSLQPEDFATYYCQQATSLPLTFGGGTKVEIK
B7: MAdCAM Antibody Table 1 Clone 51 (scFv)
scFv: EVQLLESGGGLVQPGGSLRLSCAASGFTFNNYGMNWVRQAPGKGLEWVSRINSDGSSTSYADSVKGRFTISRDNSKNTLYLQMNSLRAEDTAVYYCARGAYYYYYMDVWGQGTLVTVSSGGGGSGGGGSGGGGSGGGGSEIVMTQSPATLSVSPGERATLSCRASQSVSGSYLAWYQQKPGQAPRLLIYATSSRASGIPARFSGSGSGTEFTLTISSLQSEDFAVYYCQQYYSGLTFGQGTKVEIK
B8: MAdCAM Antibody Table 1 Clone 65 (scFv)
scFv: QVQLVQSGAEVKKPGASVKVSCKASGYTFTRHWIHWVRQAPGQGLEWMGWINVKTGGAGYAQKFQGRVTMTRDTSTSTVYMELSSLRSEDTAVYYCARESSGWYGTDVWGQGTTVTVSSGGGGSGGGGSGGGGSGGGGSDIQMTQSPSSLSASVGDRATITCRASQSISNYLAWYQQKPGKAPKLLIYAASSLQSGVPSRFSGSGSGTDFTLTISSLQPEDFATYYCQQSNSFPLTFGGGTKVEIK
B9: MAdCAM Antibody Table 1 Clone 55 (scFv)
scFv: QVQLVQSGAEVKKPGASVKVSCKASGYTFTSYYMHWVRQAPGQGLEWMGIIDPSGGSTSYAQKFQGRVTMTRDTSTSTVYMELSSLRSEDTAVYYCAREEWSSGGVGYFDYWGQGTLVTVSSGGGGSGGGGSGGGGSGGGGSDIQMTQSPSSLSASVGDRVTITCRASQGISSYLAWYQQKPGKAPKLLIYATSSLQTGVPSRFSGSGSGTDFTLTISSLQPEDFATYYCQQTYSIPITFGQGTRLEIK
B10: MAdCAM Antibody Table 1 Clone 53 (scFv)
scFv: QVQLVQSGAEVKKPGASVKVSCKASGYTFTSYDINWVRQAPGQGLEWMGWMNPNSGNTGYAQKFQGRVTMTRDTSTSTVYMELSSLRSEDTAVYYCAKDSDYSNLLWDYWGQGTLVTVSSGGGGSGGGGSGGGGSGGGGSDIQMTQSPSSLSASVGDRVTITCRASQDITNDLGWYQQKPGKAPKLLIYQASSLESGVPSRFSGSGSGTDFTLTISSLQPEDFATYYCQQSYTIPLTFGQGTKVEIK
B11: MAdCAM Antibody Table 1 Clone 58 (scFv)
scFv: QVQLVQSGAEVKKPGASVKVSCKASGYTFTGYYMHWVRQAPGQGLEWMGIINPSGGNTKYAQKFQGRVTMTRDTSTSTVYMELSSLRSEDTAVYYCTTADYYYYMDVWGKGTTVTVSSGGGGSGGGGSGGGGSGGGGSDIQMTQSPSSLSASVGDRVTITCRASQGISNYLAWYQQKPGKAPKLLIYAASSLQSGVPSRFSGSGSGTDFTLTISSLQPEDFATYYCQQYYSNADFGQGTKVEIK
B12: MAdCAM Antibody Table 1 Clone 64 (scFv)
scFv: EVQLLESGGGLVKPGGSLRLSCAASGFAFSSHWMHWVRQAPGKGLEWVAGTSGSGESRDYADFVKGRFTISRDDSKNTLYLQMNSLKTEDTAVYYCARETYYYYYMDVWGKGTTVTVSSGGGGSGGGGSGGGGSGGGGSDIQMTQSPSSLSASVGDRVTITCRASQGISNYLAWYQQKPGKAPKLLIYDAANLEGGVPSRFSGSGSGTDFTLTISSLQPEDFATYYCQQSDIFPPTFGQGTKVEIK
B13: MAdCAM Antibody Table 1 Clone 57 (scFv)
scFv: QVQLVQSGAEVKKPGASVKVSCKASGYTFTSYYMHWVRQAPGQGLEWMGIINPSGGSTSYAQKFQGRVTMTRDTSTSTVYMELSSLRSEDTAVYYCARDSVAGTGGRYYGMDVWGQGTLVTVSSGGGGSGGGGSGGGGSGGGGSDIQMTQSPSSLSASVGDRVTITCRASQGISNYFAWYQQKPGKAPKLLIYAASSLQGGVPSRFSGSGSGTDFTLTISSLQPEDFATYYCQQSYSLPYTFGQGTKLEIK
B14: MAdCAM Antibody Table 1 Clone 66 (scFv)
scFv: EVQLLESGGGLVQPGGSLRLSCAASGFTFSSYWMHWVRQAPGKGLEWVAAISYDGKYKDYEDSVKGRFTISRDNSKNTLYLQMNSLRAEDTAVYYCARENKQWLASFDYWGQGTLVTVSSGGGGSGGGGSGGGGSGGGGSDIQMTQSPSSLSASVGDRVTITCQASQDISNFVNWYQQKPGKAPKLLIYAANLRSGVPSRFSGSGSGTDFTLTISSLQPEDFATYYCQQANSFPVTFGPGTKVDIK

biological target: T1, human MAdCAM expressed on cells; assay: cell binding

binding result | Binder
binds | B1
binds | B2
binds | B3
binds | B4
binds | B5
binds | B6
binds | B7
binds | B8
binds | B9
binds | B10
binds | B11
binds | B12
binds | B13
binds | B14

biological target: T2, mouse MAdCAM expressed on cells; assay: cell binding

binding result | Binder
binds | B1
binds | B2
binds | B3
binds | B4
no binding | B5
no binding | B6
no binding | B7
binds | B8
no binding | B9
no binding | B10
no binding | B11
binds | B12
no binding | B13
binds | B14
